According to US5489670A, “Human uroguanylin” (G. D. Searle & Co., priority 1993, dated 1996):
No end group written: not given here.

Legend:
receptors on T84 cells = molecular target: T1, receptors on T84 cells (Homo sapiens, UniProt P25092); test: 125I-ST radioligand competitive binding assay on T84 cells; settings: 30 min at 37° C., pH 5.5
T1 construct: host or cells: T84 human colon carcinoma cells
Experimental: (§1) FIG. 3(a) and (b). FIG. 3(a) Concentration-response effect of synthetic human uroguanylin, human guanylin and E. coli ST5-18 (STa) on cyclic GMP levels in T84 cells. The cells were incubated with various concentrations of ligands for 30 min. Values represent mean±SE (n=4). FIG. 3(b) Displacement of ^125 I-STa specific binding from T84 cells by human uroguanylin, human guanylin and STa. Cells were incubated for 30 min at 37° C. with labeled STa and indicated concentrations of ligands. Specific binding (%) was determined by dividing the specifically bound ^125 I-STa at each ligand concentration by the specifically bound ^125 I-STa in the absence of ligands. Each determination represents the mean of four wells examined.
Radioligand Binding Assay. ^125 I-labeled ST5-18 (^125 I-ST) was prepared by the Iodo-Gen method as previously described (3). T84 cell monolayers were washed two times with 1.0 ml per well of ice-cold binding assay buffer (Earle's medium containing 25 mM 2[N-Morpholino]ethanesulfonic acid (MES), pH 5.5). The cells were incubated for 30 min at 37° C. in 0.5 ml per well of binding assay buffer with ^125 I-ST (100,000 cpm per well) and unlabeled peptides. […] This volume was transferred to tubes and assayed for radioactivity by a multigamma counter. Results are expressed as the percentage specifically bound.

rat proximal colon = test: Short-circuit current (Isc) in rat proximal colon, Ussing chamber; settings: 0.2 μM, mucosal addition
Experimental: FIG. 4. Effect of synthetic human uroguanylin on short-circuit current (Isc) of rat colon. Effect of human uroguanylin (0.2 μM) on Isc across rat proximal colon after a mucosal addition. The response is characteristic of results from 3 other experiments.
Measurement of Short-Circuit Current (ISc) in Rat Colon. Rat proximal colon tissue, consisting of only mucosa and submucosa, was mounted between two Ussing half-chambers and bathed on both sides similar to previously reported (3). Electrical measurements were monitored with an automatic voltage clamp, and direct connecting voltage-and current-passing electrodes were used to measure trans epithelial potential difference and Isc. Tissues were equilibrated under short-circuit conditions until Isc had stabilized.

GC-C in T84 cells = molecular target: T2, GC-C in T84 cells (Homo sapiens, UniProt P25092); test: Cyclic GMP accumulation in T84 cells; type: cell-based; settings: for bioactivity of purified urine peaks in T84 cell cyclic GMP bioassay: peptides purified from human urine, microbore HPLC C8
T2 construct: host or cells: T84 human colon carcinoma cells
T2 sequence (P25092 24-1073): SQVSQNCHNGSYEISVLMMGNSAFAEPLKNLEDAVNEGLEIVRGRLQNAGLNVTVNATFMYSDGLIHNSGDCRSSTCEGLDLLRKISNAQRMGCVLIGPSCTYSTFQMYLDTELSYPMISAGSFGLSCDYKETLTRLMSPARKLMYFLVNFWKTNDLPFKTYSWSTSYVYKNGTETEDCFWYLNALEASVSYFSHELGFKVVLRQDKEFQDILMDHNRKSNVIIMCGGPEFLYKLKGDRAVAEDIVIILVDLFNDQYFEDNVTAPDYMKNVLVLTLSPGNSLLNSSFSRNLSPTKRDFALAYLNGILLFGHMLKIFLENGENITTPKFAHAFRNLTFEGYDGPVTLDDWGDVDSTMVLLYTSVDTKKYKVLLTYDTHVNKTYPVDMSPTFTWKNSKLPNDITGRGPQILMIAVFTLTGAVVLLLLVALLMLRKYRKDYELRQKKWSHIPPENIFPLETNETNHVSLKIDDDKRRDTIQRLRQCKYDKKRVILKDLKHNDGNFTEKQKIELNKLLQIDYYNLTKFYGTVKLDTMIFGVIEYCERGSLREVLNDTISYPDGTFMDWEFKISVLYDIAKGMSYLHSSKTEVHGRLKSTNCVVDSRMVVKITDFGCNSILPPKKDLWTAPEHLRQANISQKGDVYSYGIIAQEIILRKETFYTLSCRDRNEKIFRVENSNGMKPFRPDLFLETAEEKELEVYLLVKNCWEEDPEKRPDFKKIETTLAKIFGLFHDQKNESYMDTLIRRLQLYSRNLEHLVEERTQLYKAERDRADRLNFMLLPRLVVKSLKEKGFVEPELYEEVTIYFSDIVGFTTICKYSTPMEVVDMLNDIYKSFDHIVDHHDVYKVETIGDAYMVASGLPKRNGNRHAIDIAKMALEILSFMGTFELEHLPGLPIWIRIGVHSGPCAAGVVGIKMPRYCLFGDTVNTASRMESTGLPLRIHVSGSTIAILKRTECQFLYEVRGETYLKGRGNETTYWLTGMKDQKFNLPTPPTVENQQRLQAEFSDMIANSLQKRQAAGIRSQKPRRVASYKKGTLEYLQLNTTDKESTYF
Experimental: as §1
Cell Culture. A cultured human colon carcinoma cell line (T84) was obtained from the American Type Culture Collection (Rockville, Maryland) (ATCC No. CCL 248) at passage 52. Cells were grown to confluency in 24-well culture plates with a 1:1 mixture of Ham's F12 medium and Dulbecco's modified Eagle's medium (DMEM), supplemented with 10% fetal calf serum, 100 IU/ml penicillin, and 100 μg/ml streptomycin. Cells were used at passages 54-60.
Cyclic GMP determination. Monolayers of T84 cells in 24-well plates were washed twice with 1 ml/well DMEM, then incubated at 37° C. for 10 min with 0.5 ml DMEM containing 1 mM isobutylmethylxanthine, a phosphodiesterase inhibitor. Agents and fractions were then added for the indicated time as described in the results section, below. The media was then aspirated and the reaction terminated by the addition of ice cold 0.5 ml of 0.1N HC1. Aliquots were then evaporated to dryness under nitrogen and then resuspended in 5 mM sodium acetate buffer, pH 6.4. The samples were then measured for cyclic GMP by conventional RIA as described by Steiner et al. (13).

T1 sequence (P25092 24-1073): as above

Row | Substance | relative affinity, displacement of 125I-ST5-18 specific binding from T84 cells (receptors on T84 cells) | effect on short-circuit current (Isc) of rat proximal colon (rat proximal colon) | effect on T84 cell cyclic GMP levels (GC-C in T84 cells; T84 cells, 30 min incubation with ligand, 1 mM isobutylmethylxanthine) | relative potency for activation of GC-C in T84 cells (GC-C in T84 cells; T84 cells, cyclic GMP, concentration-response) | bioactivity of purified urine peaks in T84 cell cyclic GMP bioassay (GC-C in T84 cells)
1 | human guanylin: first known endogenous activator of intestinal guanylate cyclase (PGTCEICAYAACTGC; ends and bridges not checked; cysteine pairing not given here; UniProt Q02747 101-115, looked up) | much lower affinity |  |  |  | 
2 | NDDCELCVNVACTGCL [human uroguanylin, sedecapeptide, endogenous regulator of intestinal guanylate cyclase, isolated from human urine and chemically synthesized] |  | sustained rise in Isc | concentration-dependent increase | more potent than human guanylin, but less potent than ST | bioactive
3 | DDCELCVNVACTGCL [peak 2, peptide from human urine lacking the N-terminal asparagine, likely a degradation product of peak 1] |  |  |  |  | bioactive
